Data from patent publication US20200131249A1, “NOVEL PROTEINS AND USE THEREOF” (EVOLVERITAS KFT., priority 2017, published 2020).
Where no end group is shown, it is not given here.

Tests used:
human MASP-1 = target: T1, human MASP-1 (Homo sapiens, UniProt P48740); test: KI determination on human MASP-1 catalytic fragment; assay type: biochemical; set-up: key to KI on human MASP-1: N.E.: not effective; details: catalytic fragment; Z-L-Lys-SBzl
T1 construct: catalytic enzyme fragments containing the three C-terminal domains: CCP1-CCP2-SP
T1 sequence (P48740 449-699 limits assumed): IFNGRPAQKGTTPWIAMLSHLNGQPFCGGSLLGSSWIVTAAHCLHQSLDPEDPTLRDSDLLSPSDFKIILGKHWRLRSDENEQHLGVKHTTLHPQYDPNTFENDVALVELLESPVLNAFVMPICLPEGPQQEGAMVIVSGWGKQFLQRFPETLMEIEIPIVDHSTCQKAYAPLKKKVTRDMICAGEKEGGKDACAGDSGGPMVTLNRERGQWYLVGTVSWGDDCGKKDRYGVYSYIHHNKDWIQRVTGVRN
T1 sequence (P48740 298-448 partner limits assumed): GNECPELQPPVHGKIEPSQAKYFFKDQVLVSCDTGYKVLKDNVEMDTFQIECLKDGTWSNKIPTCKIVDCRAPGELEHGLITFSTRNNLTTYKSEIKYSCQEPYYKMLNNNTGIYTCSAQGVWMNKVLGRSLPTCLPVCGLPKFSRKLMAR
Experimental: The inhibition equilibrium constant (KI) of all four inhibitor variants produced was measured on human MASP-2 and rat MASP-2. Additionally, KI values were measured also on human MASP-1 and human MASP-3 to assess the specificity of the inhibitors amongst the MASP enzymes. KI values of the inhibitors on bovine trypsin, a pancreatic model enzyme was also measured.
For determining the KI of the inhibitors on MASP enzymes we used catalytic enzyme fragments containing the three C-terminal domains: CCP1-CCP2-SP. The synthetic substrate used in the measurements was Z-L-Lys-SBzl hydrochloride (Sigma, C3647), from which a 10 mM stock solution was prepared. The reactions were performed in a volume of 0.2 ml at room temperature in a buffer consisting of 20 mM HEPES; 145 mM NaCl; 5 mM CaCl2; 0.05% Triton-X100. The substrate cleaved by the enzyme entered into a reaction with the 5,5′-Dithiobis(2-nitrobenzoic acid) (DTNB, Ellman's reagent, Sigma—D8130) auxiliary substrate present in the solution in 2-fold excess to Z-L-Lys-SBzl. The release of the chromophore group created in this way was monitored via the change of absorbance at 410 nm using a BioTek Synergy H4 multimode microplate reader.
A dilution sequence was prepared from the individual inhibitors, the enzyme was added to it, and it was incubated for 2 hours at room temperature. The samples were transferred on a 96-well microtiter plate (Nunc 269620). The reactions were started by adding the mixture of the substrate and the auxiliary substrate to the samples. The concentration of the substrate and the length of the measuring period were chosen so that under the given conditions the enzyme should consume less than 10% of the substrate. In this case we used 250 μM Z-L-Lys-SBzl and 500 μM DTNB in the reactions. In the course of measuring, a method developed for the characterisation of tight-binding inhibitors was used (Empie, 1982). The concentration of the product was measured as a function of reaction time. The slope of the straight line determined for the initial phase of the reaction was normalised with the slope obtained for the uninhibited enzyme reaction, and this value was multiplied with the total enzyme concentration. As a result of this we obtained the free enzyme concentration, which was plotted as a function of the total inhibitor concentration and the Ki value was determined according to the following equation:
E=y=E0−(E0+x+Ki−(((E0+x+Ki)^2)−4*E0*x)^(½))/2,
where E is the free (uninhibited) enzyme concentration, and E0 is the total enzyme concentration. The stock concentration of the inhibitors was determined by titration with bovine trypsin of known concentration. The results were calculated as the average of parallel measurements.

classical pathway = test: C3 deposition ELISA with diluted rat serum on IgG coated plates; assay type: biochemical; details: final concentrations as high as 50 μM; 50-fold diluted rat serum
Experimental: ELISA-based complement classical and alternative pathway activation tests were performed on IgG or lipopolysaccharide (LPS) coated plates, respectively, using diluted individual (not pooled) rat serum. In these tests, inhibitory efficiencies of the protein of SEQ ID NO: 14 and SGMI-2 were compared and C3 deposition was used for quantification of the complement activation.
96-well Greiner high binding ELISA plates were coated with 100 μl/well 10 μg/ml IgG (Sigma—12511) dissolved in coating buffer (50 mM sodium-carbonate pH 9.6) overnight at 4° C. Control wells contained coating buffer alone. Wells were blocked for 2 h at 37° C. with 200 μl/well 10 mg/ml bovine serum albumin (BSA) dissolved in 50 mM Tris pH 7.4, 150 mM NaCl, 0.1% Tween-20 buffer. Serial dilutions of the inhibitors were made in 10 mM HEPES pH 7.4, 150 mM NaCl, 5 mM CaCl2, 5 mM MgCl2, 0.1% Tween-20 buffer (serum dilution buffer). Rat serum was thawed on ice and diluted 25-fold in serum dilution buffer. The diluted inhibitor samples were mixed with the 25-fold diluted rat serum in 1:1 volume ratio resulting in 50-fold diluted rat serum-inhibitor samples. The samples were incubated at room temperature for 30 minutes. […] The 490 nm absorbance values were recorded using a PerkinElmer EnSpire multimode plate reader. Four parallels were measured for each data point.

Substance: SEQ ID NO: 14: TFPI-D2 variant protein with inhibitor loop PCRAVKR (SEQ ID NO: 4) (KPDFCFLEEDPGPCRAVKRRYFYNNQTKQCERFKYGGCLGNMNNFETLEECKNICEDG; ends and bridges not checked; cysteine pairing not given here)
- KI on human MASP-1 (human MASP-1): N.E.
- inhibition of the classical pathway in rat serum (classical pathway): neither the protein of SEQ ID NO: 14 nor SGMI-2 were able to inhibit

Substance: SGMI-2 (GSGEVTCEPGTTFKDKCNTCRCGSDGKSAVCTKLWCNQ; Synthetic protein of insect origin) [reference compound]
- KI on human MASP-1 (human MASP-1): N.E.
- inhibition of the classical pathway in rat serum (classical pathway): neither the protein of SEQ ID NO: 14 nor SGMI-2 were able to inhibit
